± gives the uncertainty stated by the source.
Experiment: amyloid nucleation score (Sup35N fusion, yeast selection) (log enrichment); library NNK3; higher = more nucleation; inactive = no reads after selection
Method in brief: (§1)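 Plasmid inserts were Illumina-sequenced at input and output from psi-negative yeast expressing Sup35N fused to peptides of 20 random codons. The yeast were induced with 100 μM copper sulfate for 24 hours and grown 7 days at 30°C on medium lacking adenine and uracil, and sequences with under 100 input reads were excluded. Nucleation score is the DiMSum log enrichment of output over input reads, centred on the mode score of non-aggregating sequences.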
In the case of YRNELCYIQRRYLPYGRWTA, the amyloid nucleation score is reported as “inactive”. In the case of YRNSICHNREKAWHGSNKNR, the amyloid nucleation score is reported as “inactive”. With YRPRGERLRFMYCY the amyloid nucleation score was “inactive”. In the case of YRVRLCNGSCAQVWCLIRPP, the amyloid nucleation score is reported as “inactive”. With YRYCINVTKYHLLQ the amyloid nucleation score was “inactive”. For YSDFAWDPRSKNKYGWHPRL, the amyloid nucleation score was “inactive”. In the case of YSFCVSVATEQLKHLSSLWH, the amyloid nucleation score is reported as “inactive”. YSFRVTYEGPHAN gave an amyloid nucleation score of 0.873 ± 0.14. For YSGSNITTHNVFNETGDWSG, the amyloid nucleation score was “inactive”. For YSLCACSYYVNVVNNRVVSV, the amyloid nucleation score was 1.39 ± 0.073. For YSLCLGIAHVRMSTARYYLA, the amyloid nucleation score was “inactive”. For YSMSILFRYHLNGVRYGMTG, the amyloid nucleation score was “inactive”. With YSQLCFF the amyloid nucleation score was “inactive”. In the case of YSRFDWVNLVIVGHYRTLFS, the amyloid nucleation score is reported as “inactive”. For YSRLEFKRWHVVIDSWRWMD, the amyloid nucleation score was “inactive”. With YSRSTWVRIWFLLVSLLPVG the amyloid nucleation score was “inactive”. With YSSLLWCKIES the amyloid nucleation score was “inactive”. For YSSVTTIVVPSLNAYILNCR, the amyloid nucleation score was “inactive”. In the case of YSTMRS, the amyloid nucleation score is reported as “inactive”. With YSTVYIGSQVRVDDTLSMSA the amyloid nucleation score was “inactive”. For YSYIEGL, the amyloid nucleation score was “inactive”. With YTGSMAGSTYLTGKLSLDDR the amyloid nucleation score was “inactive”. For YTMLFLLLSWNVFFISWCCF, the amyloid nucleation score was “inactive”. In the case of YTRLRNVDTRAFMDSPDILW, the amyloid nucleation score is reported as “inactive”. In the case of YTVLWDLVFWGTPICYVIDN, the amyloid nucleation score is reported as “inactive”. For YTYQTLLADLNKGFMYSRRW, the amyloid nucleation score was “inactive”. With YVDCYRFAVMQEFPCQYRGD the amyloid nucleation score was “inactive”. In the case of YVDLAGLMLMADMA, the amyloid nucleation score is reported as “inactive”. In the case of YVDTAHHGSFENLECVEGLC, the amyloid nucleation score is reported as “inactive”. For YVFDHDIGQ, the amyloid nucleation score was “inactive”. Substance YVFLRVEILEKLQQV has an amyloid nucleation score of -0.522 ± 0.84. With YVGFVARVVRDYNGYQRDTC the amyloid nucleation score was “inactive”. For YVGPKMFLVWVCDATDVGKW, the amyloid nucleation score was “inactive”. For YVGYIDRWSSCYKVFWV, the amyloid nucleation score was “inactive”. For YVILGIRGKGWVFYQRAP, the amyloid nucleation score was “inactive”. In the case of YVLCFVVELWIGFSDDWISW, the amyloid nucleation score is reported as “inactive”. YVNRYLLYFSFFTFANMCGS showed an amyloid nucleation score of 2.05 ± 0.055. With YVNVYGSQMVYSKSQGHFPD the amyloid nucleation score was “inactive”. In the case of YVQSLNR, the amyloid nucleation score is reported as “inactive”. With YVRLWVEDWETFSKMGSQIL the amyloid nucleation score was “inactive”. With YVSDD the amyloid nucleation score was “inactive”. Substance YVSHVSISVSSMLCYGGQSW has an amyloid nucleation score of 1.93 ± 0.096. In the case of YVSPKSIVLIPCYTMRKTRY, the amyloid nucleation score is reported as “inactive”. For YVTLYLDTGSCYLSLGCGAG, the amyloid nucleation score was 0.758 ± 0.22. With YVVELLVDSGYVPLCTTGQG the amyloid nucleation score was “inactive”. For YVWIDYSSVYMD, the amyloid nucleation score was “inactive”. In the case of YVWLGDLMSVRCYYWVTW, the amyloid nucleation score is reported as “inactive”. YVYDCYAAQHVY gave an amyloid nucleation score of -0.213 ± 0.77. In the case of YVYGKNGARGDSIREMGPSE, the amyloid nucleation score is reported as “inactive”. For YWFGWKGGRSVRRVSWSADW, the amyloid nucleation score was 0.13 ± 0.66. With YWMMY the amyloid nucleation score was “inactive”. For YWNYQMVCFCVNCV, the amyloid nucleation score was 2.17 ± 0.075. For YYCEFGLFELKQTYCRLFWG, the amyloid nucleation score was “inactive”. With YYCSDLSRSMDRSLRSTWPF the amyloid nucleation score was “inactive”. With YYNAGAGKRRYNRSVRGSLK the amyloid nucleation score was “inactive”. In the case of YYNSGSLNTYPVNLNLDNFH, the amyloid nucleation score is reported as “inactive”. With YYPSEQTIGWPKLTFVDVVL the amyloid nucleation score was “inactive”. In the case of YYRFLQWSGGNLWTPRWAPC, the amyloid nucleation score is reported as “inactive”. For YYSKPPCVLTDVGLIWLRPY, the amyloid nucleation score was “inactive”. With YYVLPASG the amyloid nucleation score was “inactive”. In the case of YYYYDRCMRPVHSGKGVKLW, the amyloid nucleation score is reported as “inactive”.

Experiment: amyloid nucleation score (Sup35N fusion, yeast selection) (log enrichment); library NNK2; higher = more nucleation; inactive = no reads after selection
Method in brief: as §1
In the case of AAFRSTFDCTTVVLRSPSVS, the amyloid nucleation score is reported as -0.345 ± 0.33. In the case of AAFVAYLAYFLMFSSCFCIY, the amyloid nucleation score is reported as “inactive”. For AAGRDVARAFGSLVQKLGVG, the amyloid nucleation score was 4.88 ± 0.097. Substance AAIMMN has an amyloid nucleation score of -0.231 ± 0.62. AALELSRNKFSVRIICVLLW showed an amyloid nucleation score of -0.238 ± 1.1. In the case of AALFDLRWTHHKYFPNVKSG, the amyloid nucleation score is reported as 0.057 ± 1.1. With AARVIGWAFVDWFCLSKG the amyloid nucleation score was “inactive”. Work on ACCFESSGIQLEVRGGGAWG yielded an amyloid nucleation score of 1.58 ± 0.27. With ACFSSSLCFVGMERSRSHNF the amyloid nucleation score was 1.91 ± 0.13. Work on ACLFWIYARRHRLAWFVFIW yielded an amyloid nucleation score of -0.37 ± 0.76. With ACLITNRV the amyloid nucleation score was -0.288 ± 0.54. Work on ACYIR yielded an amyloid nucleation score of 1.02 ± 0.17. ADDCLRTCSNKLKTQAGLW showed an amyloid nucleation score of 1.38 ± 0.35. ADHELVVITDVGFRLGSTGD gave an amyloid nucleation score of -0.226 ± 0.37. Substance ADMIMRYKG has an amyloid nucleation score of 0.879 ± 0.57. Work on ADQWGTRVWPGWEFVLEVAA yielded an amyloid nucleation score of 1.33 ± 0.31. With AECNRHLLQAVSLY the amyloid nucleation score was -0.256 ± 0.29. Substance AEHYECPLCERIETAGCKLV has an amyloid nucleation score of 0.509 ± 0.24. For AFATRCCSTLIDPSFVIGTG, the amyloid nucleation score was 0.692 ± 0.41. AFCKGYIARMRSINAGVGAG showed an amyloid nucleation score of -0.144 ± 0.36. AFDLLDD gave an amyloid nucleation score of 0.904 ± 0.33.

Reference: the supplement of paper PMC12042874
